A short description of one series: circular dichroism. The settings on record: 10 mM Na phosphate; pH 7.4; 25 °C; 100 uM.
Another series in a line: in vitro. To be noted: rat, plasma.
The conditions of series [1]: 37 °C, comparison in words.

Bridge positions count the residues as written; N and C are the ends. Square brackets hold non-standard residues; d marks the D form. Peptide text beside a SMILES is read from it. S5 = C=CCCC[C@](C)(N)C(=O)O

Regarding `CC(=O)N[C@@H](CC(=O)O)C(=O)N[C@@H](CCCCN)C(=O)N[C@@H]1Cc2cn(nn2)CCCC[C@@H](C(=O)N[C@@H](CCC(=O)O)C(=O)N[C@@H](CC(=O)O)C(N)=O)NC(=O)[C@H](CCC(=O)O)NC(=O)[C@H](Cc2c[nH]cn2)NC(=O)[C@H](CC(N)=O)NC1=O`, in “circular dichroism”, the helicity was determined as 5.2%.
Still for that read-out and setting: the value for `CC(=O)N[C@@H](CC(=O)O)C(=O)N[C@@H](CCCCN)C(=O)N[C@H]1CSCc2ccc(cc2)CSC[C@@H](C(=O)N[C@@H](CCC(=O)O)C(=O)N[C@@H](CC(=O)O)C(N)=O)NC(=O)[C@H](CCC(=O)O)NC(=O)[C@H](Cc2c[nH]cn2)NC(=O)[C@H](CC(N)=O)NC1=O` was 5%; that for `CC(=O)N[C@@H](CC(=O)O)C(=O)N[C@@H](CCCCN)C(=O)N[C@H]1Cn2cc(nn2)CCc2cn(nn2)C[C@@H](C(=O)N[C@@H](CCC(=O)O)C(=O)N[C@@H](CC(=O)O)C(N)=O)NC(=O)[C@H](CCC(=O)O)NC(=O)[C@H](Cc2c[nH]cn2)NC(=O)[C@H](CC(N)=O)NC1=O` was 8.2%.
On the same count and under the same terms, for `CC(=O)N[C@@H](Cc1c[nH]cn1)C(=O)N[C@@H](CCC(=O)O)C(=O)N[C@@H]1Cc2cn(nn2)CCCC[C@@H](C(=O)N[C@@H](Cc2ccc(O)cc2)C(=O)N[C@@H](CCC(N)=O)C(N)=O)NC(=O)[C@H](CC(C)C)NC(=O)[C@H](CC(=O)O)NC(=O)[C@H](CCC(=O)O)NC1=O` the value was 25.7%; for `CC(=O)N[C@@H](Cc1c[nH]cn1)C(=O)N[C@@H](CCC(=O)O)C(=O)N[C@H]1CCCCn2cc(nn2)C[C@H](C(=O)N[C@@H](Cc2ccc(O)cc2)C(=O)N[C@@H](CCC(N)=O)C(N)=O)NC(=O)[C@H](CC(C)C)NC(=O)[C@H](CC(=O)O)NC(=O)[C@H](CCC(=O)O)NC1=O`, 18.1%.
Same read-out and setting: the value for `CC(=O)N[C@@H](Cc1c[nH]cn1)C(=O)N[C@@H](CCC(=O)O)C(=O)N[C@H]1Cn2cc(nn2)CCc2cn(nn2)C[C@@H](C(=O)N[C@@H](Cc2ccc(O)cc2)C(=O)N[C@@H](CCC(N)=O)C(N)=O)NC(=O)[C@H](CC(C)C)NC(=O)[C@H](CC(=O)O)NC(=O)[C@H](CCC(=O)O)NC1=O` was 50.7%.
Turning to `CC(=O)N[C@@H](CC(=O)O)C(=O)N[C@@H](CCCCN)C(=O)N[C@H]1CC(=O)NCCCC[C@@H](C(=O)N[C@@H](CCC(=O)O)C(=O)N[C@@H](CC(=O)O)C(N)=O)NC(=O)[C@H](CCC(=O)O)NC(=O)[C@H](Cc2c[nH]cn2)NC(=O)[C@H](CC(N)=O)NC1=O` (Ac-DKDNHEKED-NH2; lactam 3-7), the helicity in “circular dichroism” was 37.2%.
Same read-out and setting: the value for `CC(=O)N[C@@H](CC(=O)O)C(=O)N[C@@H](CCCCN)C(=O)N[C@H]1CCCCNC(=O)C[C@@H](C(=O)N[C@@H](CCC(=O)O)C(=O)N[C@@H](CC(=O)O)C(=O)N[C@H]2CCCCNC(=O)C[C@@H](C(N)=O)NC(=O)[C@H](CCC(N)=O)NC(=O)[C@H](Cc3ccc(O)cc3)NC(=O)[C@H](Cc3ccccc3)NC2=O)NC(=O)[C@H](CCC(=O)O)NC(=O)[C@H](Cc2c[nH]cn2)NC(=O)[C@H](CC(N)=O)NC1=O` (Ac-DKKNHEDEDKFYQD-NH2; lactam 3-7, 10-14) was 25.2%; that for `CC(=O)N[C@@H](CC(=O)O)C(=O)N[C@@H](CCCCN)C(=O)N[C@@]1(C)CCC/C=C/CCC[C@@](C)(C(=O)N[C@@H](CCC(=O)O)C(=O)N[C@@H](CC(=O)O)C(N)=O)NC(=O)[C@H](CCC(=O)O)NC(=O)[C@H](Cc2c[nH]cn2)NC(=O)[C@H](CC(N)=O)NC1=O` (Ac-DK[S5]NHE[S5]ED-NH2; staple (E) 3-7) was 4.7%.
The same measure, in the same setting: for `CC(=O)N[C@@H](Cc1c[nH]cn1)C(=O)N[C@@H](CCC(=O)O)C(=O)N[C@H]1CC(=O)NCCCC[C@@H](C(=O)N[C@@H](Cc2ccc(O)cc2)C(=O)N[C@@H](CCC(N)=O)C(N)=O)NC(=O)[C@H](CC(C)C)NC(=O)[C@H](CC(=O)O)NC(=O)[C@H](CCC(=O)O)NC1=O` (Ac-HEDEDLKYQ-NH2; lactam 3-7) the value was 35.1%; for `CC(=O)N[C@@H](Cc1c[nH]cn1)C(=O)N[C@@H](CCC(=O)O)C(=O)N[C@H]1CCCCNC(=O)CC[C@@H](C(=O)N[C@@H](Cc2ccc(O)cc2)C(=O)N[C@@H](CCC(N)=O)C(N)=O)NC(=O)[C@H](CC(C)C)NC(=O)[C@H](CC(=O)O)NC(=O)[C@H](CCC(=O)O)NC1=O` (Ac-HEKEDLEYQ-NH2; lactam 3-7), 4.6%.
As for `C=CCCC[C@](C)(NC(=O)[C@H](CC(C)C)NC(=O)[C@H](CC(=O)O)NC(=O)[C@H](CCC(=O)O)NC(=O)[C@](C)(CCCC=C)NC(=O)[C@H](CCC(=O)O)NC(=O)[C@H](Cc1c[nH]cn1)NC(C)=O)C(=O)N[C@@H](Cc1ccc(O)cc1)C(=O)N[C@@H](CCC(N)=O)C(N)=O` (Ac-HE[S5]EDL[S5]YQ-NH2), the helicity in “circular dichroism” came to 11%.
The same measure, in the same setting: for `CC(=O)N1CCC[C@H]1C(=O)N[C@@H](CC(=O)O)C(=O)N[C@@H](CCCCN)C(=O)N[C@H]1CCCCNC(=O)C[C@@H](C(=O)N[C@@H](CCC(=O)O)C(=O)N[C@@H](CC(=O)O)C(N)=O)NC(=O)[C@H](CCC(=O)O)NC(=O)[C@H](Cc2c[nH]cn2)NC(=O)[C@H](CC(N)=O)NC1=O` (Ac-PDKKNHEDED-NH2; lactam 4-8) the value was 89.7%; for `CC(=O)N1CCC[C@H]1C(=O)N[C@@H](Cc1c[nH]cn1)C(=O)N[C@@H](CCC(=O)O)C(=O)N[C@H]1CCCCNC(=O)C[C@@H](C(=O)N[C@@H](Cc2ccc(O)cc2)C(=O)N[C@@H](CCC(N)=O)C(N)=O)NC(=O)[C@H](CC(C)C)NC(=O)[C@H](CC(=O)O)NC(=O)[C@H](CCC(=O)O)NC1=O` (Ac-PHEKEDLDYQ-NH2; lactam 4-8), 56.7%.
As for `CC(=O)N[C@@H](CC(=O)O)C(=O)N[C@@H](CCCCN)C(=O)N[C@H]1CCCCNC(=O)C[C@@H](C(=O)N[C@@H](CCC(=O)O)C(=O)N[C@@H](CC(=O)O)C(N)=O)NC(=O)[C@H](CCC(=O)O)NC(=O)[C@H](Cc2c[nH]cn2)NC(=O)[C@H](CC(N)=O)NC1=O` [compound 3] (Ac-DKKNHEDED-NH2; lactam 3-7), the helicity in the series “circular dichroism” was 49.9%. Further, the half-life in the series “in vitro” was 2.9 h.
The matching figures for `CC(=O)N[C@@H](CC(=O)O)C(=O)N[C@@H](CCCCN)C(=O)N[C@@]1(C)CCC/C=C\CCC[C@@](C)(C(=O)N[C@@H](CCC(=O)O)C(=O)N[C@@H](CC(=O)O)C(N)=O)NC(=O)[C@H](CCC(=O)O)NC(=O)[C@H](Cc2c[nH]cn2)NC(=O)[C@H](CC(N)=O)NC1=O` [peptide 10] (Ac-DK[S5]NHE[S5]ED-NH2; staple (Z) 3-7): 68.9% and 4 h.
Take `CC(=O)N[C@@H](Cc1c[nH]cn1)C(=O)N[C@@H](CCC(=O)O)C(=O)N[C@@]1(C)CCC/C=C/CCC[C@@](C)(C(=O)N[C@@H](Cc2ccc(O)cc2)C(=O)N[C@@H](CCC(N)=O)C(N)=O)NC(=O)[C@H](CC(C)C)NC(=O)[C@H](CC(=O)O)NC(=O)[C@H](CCC(=O)O)NC1=O` [peptide 11, Ac-NH-His-Glu-[S5-Glu-Asp-Leu-S5]-Tyr-Gln-CO-NH2] (Ac-HE[S5]EDL[S5]YQ-NH2; staple (E) 3-7): in the series “circular dichroism”, the helicity is 53.5%. The “Degradation / stability in rat plasma over 24 h” value in series [1] was “significantly more stable”. The half-life in “in vitro” is 6.8 h.
Consider Ac-DKFNHEAED-NH2 [peptide 1], for which the “Degradation / stability in rat plasma over 24 h” value in series [1] is “levels of degradation similar to those of 8-amino acid-long AngII”.
Still for that read-out and setting: the value for Ac-HEAEDLFYQ-NH2 [peptide 2] was “levels of degradation similar to those of 8-amino acid-long AngII”.

The values above are taken from article PMC10778704, “Comparative Analysis of Cyclization Techniques in Stapled Peptides: Structural Insights into Protein–Protein Interactions in a SARS-CoV-2 Spike RBD/hACE2 Model System” (International Journal of Molecular Sciences, 2023).
